{"source": "paper PMC2809104", "about": "“Crystal Structure and Substrate Specificity of Drosophila 3,4-Dihydroxyphenylalanine Decarboxylase” (PLoS ONE, 2010)", "key": {"[1]": {"molecular_target": "T1, drDDC (Drosophila melanogaster, UniProt P05031, H227W/DEL476-510, form not given)", "T1 construct": "gene Ddc; homodimer, PLP holoenzyme; residues 1-475", "T1 sequence (P05031 1-475 isoform P05031-2 H192W)": "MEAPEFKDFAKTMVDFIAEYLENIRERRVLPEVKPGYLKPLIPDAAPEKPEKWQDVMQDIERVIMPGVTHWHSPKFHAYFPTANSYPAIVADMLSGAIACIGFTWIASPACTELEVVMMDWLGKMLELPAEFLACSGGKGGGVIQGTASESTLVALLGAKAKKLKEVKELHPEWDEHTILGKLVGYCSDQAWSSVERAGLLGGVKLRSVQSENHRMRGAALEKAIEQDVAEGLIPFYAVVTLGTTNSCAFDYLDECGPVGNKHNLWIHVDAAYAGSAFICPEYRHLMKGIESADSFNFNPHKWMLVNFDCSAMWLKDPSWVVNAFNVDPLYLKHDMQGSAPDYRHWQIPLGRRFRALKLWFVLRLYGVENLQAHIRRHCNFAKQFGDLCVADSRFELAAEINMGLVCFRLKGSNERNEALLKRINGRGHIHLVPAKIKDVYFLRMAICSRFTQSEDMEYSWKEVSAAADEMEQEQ", "test": "HPLC-UV of decarboxylated product, Michaelis-Menten fit", "assay_type": "biochemical", "details": "38°C, 40 µM PLP, 150 mM potassium phosphate pH 7.0", "description": "(§1) HPLC-UV of decarboxylated product, Michaelis-Menten fit on drDDC"}, "[2]": {"molecular_target": "T2, drDDC (Drosophila melanogaster, UniProt P05031, T117A/DEL476-510, form not given)", "T2 construct": "gene Ddc; homodimer, PLP holoenzyme; residues 1-475", "T2 sequence (P05031 1-475 isoform P05031-2 T82A)": "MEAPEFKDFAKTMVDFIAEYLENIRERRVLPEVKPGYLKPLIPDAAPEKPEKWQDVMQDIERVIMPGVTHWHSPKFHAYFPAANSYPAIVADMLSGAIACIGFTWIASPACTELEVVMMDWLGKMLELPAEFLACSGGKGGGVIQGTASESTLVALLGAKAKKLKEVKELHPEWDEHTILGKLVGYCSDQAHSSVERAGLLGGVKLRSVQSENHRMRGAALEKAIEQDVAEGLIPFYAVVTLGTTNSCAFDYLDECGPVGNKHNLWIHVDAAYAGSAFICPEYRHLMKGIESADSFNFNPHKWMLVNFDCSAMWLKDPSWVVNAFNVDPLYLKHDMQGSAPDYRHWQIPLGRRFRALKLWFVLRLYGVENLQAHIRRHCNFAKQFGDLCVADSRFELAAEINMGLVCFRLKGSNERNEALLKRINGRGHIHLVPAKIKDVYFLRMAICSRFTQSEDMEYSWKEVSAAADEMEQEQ", "test": "HPLC-UV of decarboxylated product, Michaelis-Menten fit", "assay_type": "biochemical", "details": "38°C, 40 µM PLP, 150 mM potassium phosphate pH 7.0", "description": "as §1"}, "[3]": {"molecular_target": "T3, drDDC (Drosophila melanogaster, UniProt P05031, T117S/DEL476-510, form not given)", "T3 construct": "gene Ddc; homodimer, PLP holoenzyme; residues 1-475", "T3 sequence (P05031 1-475 isoform P05031-2 T82S)": "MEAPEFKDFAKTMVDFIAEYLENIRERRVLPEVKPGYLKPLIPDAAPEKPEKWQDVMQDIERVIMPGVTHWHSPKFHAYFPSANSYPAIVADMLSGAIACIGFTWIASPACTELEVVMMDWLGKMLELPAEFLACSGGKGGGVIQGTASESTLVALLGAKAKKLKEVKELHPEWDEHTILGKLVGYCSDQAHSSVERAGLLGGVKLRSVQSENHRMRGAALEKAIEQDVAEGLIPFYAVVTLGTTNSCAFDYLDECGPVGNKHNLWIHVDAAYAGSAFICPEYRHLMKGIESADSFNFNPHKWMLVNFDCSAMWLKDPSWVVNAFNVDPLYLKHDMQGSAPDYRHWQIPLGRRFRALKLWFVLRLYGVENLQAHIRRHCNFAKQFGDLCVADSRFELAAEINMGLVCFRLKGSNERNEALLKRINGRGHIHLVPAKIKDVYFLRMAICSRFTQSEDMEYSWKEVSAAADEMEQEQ", "test": "HPLC-UV of decarboxylated product, Michaelis-Menten fit", "assay_type": "biochemical", "details": "38°C, 40 µM PLP, 150 mM potassium phosphate pH 7.0", "description": "as §1"}, "[4]": {"molecular_target": "T4, drDDC (Drosophila melanogaster, UniProt P05031)", "T4 construct": "gene Ddc; homodimer, PLP holoenzyme; residues 1-475", "T4 sequence (P05031 36-510)": "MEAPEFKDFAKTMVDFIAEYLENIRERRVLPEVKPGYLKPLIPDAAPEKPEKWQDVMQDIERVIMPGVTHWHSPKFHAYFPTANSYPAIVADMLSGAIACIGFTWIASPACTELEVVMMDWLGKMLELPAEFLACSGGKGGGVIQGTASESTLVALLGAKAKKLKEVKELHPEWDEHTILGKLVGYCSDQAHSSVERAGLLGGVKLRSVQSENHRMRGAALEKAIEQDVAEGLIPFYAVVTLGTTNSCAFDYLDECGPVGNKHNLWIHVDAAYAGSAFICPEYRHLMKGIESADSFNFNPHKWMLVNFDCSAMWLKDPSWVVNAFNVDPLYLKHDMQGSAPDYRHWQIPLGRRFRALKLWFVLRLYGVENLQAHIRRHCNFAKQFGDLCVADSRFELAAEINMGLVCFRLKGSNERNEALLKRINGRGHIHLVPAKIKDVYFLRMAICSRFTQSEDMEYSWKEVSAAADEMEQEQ", "test": "X-ray crystal structure, […] Å", "assay_type": "binding", "details": "covalent internal aldimine (Schiff base) with K302"}, "[5]": {"substrate": "NC(Cc1cccc(O)c1)C(=O)O", "test": "HPLC-UV of decarboxylated product, Michaelis-Menten fit", "assay_type": "biochemical, Drosophila melanogaster", "details": "38°C, 40 µM PLP, 150 mM potassium phosphate pH 7.0, racemic DL substrate", "description": "as §1"}, "[6]": {"substrate": "NC(Cc1ccccc1O)C(=O)O", "test": "HPLC-UV of decarboxylated product, Michaelis-Menten fit", "assay_type": "biochemical, Drosophila melanogaster", "details": "38°C, 40 µM PLP, 150 mM potassium phosphate pH 7.0, racemic DL substrate", "description": "as §1"}, "[7]": {"substrate": "N[C@@H](Cc1c[nH]c2ccc(O)cc12)C(=O)O", "test": "HPLC-UV of decarboxylated product, Michaelis-Menten fit", "assay_type": "biochemical, Drosophila melanogaster", "details": "38°C, 40 µM PLP, 150 mM potassium phosphate pH 7.0", "description": "as §1"}, "[8]": {"substrate": "N[C@@H](Cc1ccc(O)c(O)c1)C(=O)O", "test": "HPLC-UV of decarboxylated product, Michaelis-Menten fit", "assay_type": "biochemical, Drosophila melanogaster", "details": "38°C, 40 µM PLP, 150 mM potassium phosphate pH 7.0", "description": "as §1"}, "[9]": {"molecular_target": "the molecule itself", "test": "crystal structure; hanging-drop vapor diffusion; 15% PEG 4000, 20% glycerol, 200 mM CaCl2, 100 mM cacodylic acid pH 6.5; molecular replacement with pig DDC (1js3); two molecules in the asymmetric unit"}}, "data": [{"molecule": "N[C@@H](Cc1ccc(O)c(O)c1)C(=O)O", "note": "[DOPA]", "values": [{"measurement": "Km", "setting": "[1]", "value": "4.4 ± 0.8", "unit": "mM"}, {"measurement": "Km", "setting": "[2]", "value": "5.6 ± 1", "unit": "mM"}, {"measurement": "Km", "setting": "[3]", "value": "4.5 ± 0.9", "unit": "mM"}]}, {"molecule": "N[C@@H](Cc1c[nH]c2ccc(O)cc12)C(=O)O", "note": "[5-HTP]", "values": [{"measurement": "Km", "setting": "[1]", "value": "1.1 ± 0.1", "unit": "mM"}, {"measurement": "Km", "setting": "[2]", "value": "3.5 ± 0.5", "unit": "mM"}, {"measurement": "Km", "setting": "[3]", "value": "0.6 ± 0.1", "unit": "mM"}]}, {"molecule": "NC(Cc1ccccc1O)C(=O)O", "note": "(racemic) [o-tyr, DL-o-tyrosine]", "values": [{"measurement": "Km", "setting": "[2]; racemic DL substrate", "value": "4.9 ± 1.5", "unit": "mM"}]}, {"molecule": "Cc1ncc(COP(=O)(O)O)c(C=O)c1O", "note": "[PLP]", "values": [{"measurement": "X-ray crystal structure, 1.75 Å", "setting": "[4]", "value": "The cofactor PLP binds to K302 through a Schiff base linkage"}]}, {"molecule": "NC(Cc1cccc(O)c1)C(=O)O", "note": "(racemic) [m-tyr, DL-m-tyrosine]", "values": [{"measurement": "Km", "setting": "[1]; racemic DL substrate", "value": "2.6 ± 1.1", "unit": "mM"}, {"measurement": "Km", "setting": "[2]; racemic DL substrate", "value": "13.3 ± 4.5", "unit": "mM"}, {"measurement": "Km", "setting": "[3]; racemic DL substrate", "value": "11.4 ± 2.2", "unit": "mM"}]}, {"molecule": "drDDC (Drosophila melanogaster) (protein, homodimer, PLP holoenzyme; residues 1-475) MEAPEFKDFAKTMVDFIAEYLENIRERRVLPEVKPGYLKPLIPDAAPEKPEKWQDVMQDIERVIMPGVTHWHSPKFHAYFPTANSYPAIVADMLSGAIACIGFTWIASPACTELEVVMMDWLGKMLELPAEFLACSGGKGGGVIQGTASESTLVALLGAKAKKLKEVKELHPEWDEHTILGKLVGYCSDQAHSSVERAGLLGGVKLRSVQSENHRMRGAALEKAIEQDVAEGLIPFYAVVTLGTTNSCAFDYLDECGPVGNKHNLWIHVDAAYAGSAFICPEYRHLMKGIESADSFNFNPHKWMLVNFDCSAMWLKDPSWVVNAFNVDPLYLKHDMQGSAPDYRHWQIPLGRRFRALKLWFVLRLYGVENLQAHIRRHCNFAKQFGDLCVADSRFELAAEINMGLVCFRLKGSNERNEALLKRINGRGHIHLVPAKIKDVYFLRMAICSRFTQSEDMEYSWKEVSAAADEMEQEQ", "values": [{"measurement": "Km", "setting": "[5]", "value": "2.3 ± 1.2", "unit": "mM"}, {"measurement": "kcat", "setting": "[5]", "value": "3.56 ± 0.673", "unit": "s⁻¹"}, {"measurement": "kcat/Km", "setting": "[5]", "value": 1550, "unit": "M⁻¹ s⁻¹"}, {"measurement": "Km", "setting": "[6]", "value": "1.1 ± 0.3", "unit": "mM"}, {"measurement": "kcat", "setting": "[6]", "value": "1.85 ± 0.133", "unit": "s⁻¹"}, {"measurement": "kcat/Km", "setting": "[6]", "value": 1680, "unit": "M⁻¹ s⁻¹"}, {"measurement": "Km", "setting": "[7]", "value": "0.4 ± 0.04", "unit": "mM"}, {"measurement": "kcat", "setting": "[7]", "value": "1.05 ± 0.0233", "unit": "s⁻¹"}, {"measurement": "kcat/Km", "setting": "[7]", "value": 2620, "unit": "M⁻¹ s⁻¹"}, {"measurement": "Km", "setting": "[8]", "value": "2.2 ± 0.3", "unit": "mM"}, {"measurement": "kcat", "setting": "[8]", "value": "4.7 ± 0.0267", "unit": "s⁻¹"}, {"measurement": "kcat/Km", "setting": "[8]", "value": 2140, "unit": "M⁻¹ s⁻¹"}]}, {"molecule": "Drosophila melanogaster 3,4-dihydroxyphenylalanine decarboxylase, wild type (enzyme, UniProt P05031-2 1-475, looked up, lysine-pyridoxal-5-phosphate (LLP): PLP bound to K302 through a Schiff base (internal aldimine), the forward primer begins at ATG GAG GCG CCG GAG TTC (MEAPEF); also called drDDC; drDDC WT; source: Escherichia coli DE3, purified (chitin beads, DEAE-Sepharose, Mono-Q, gel filtration)) MEAPEFKDFAKTMVDFIAEYLENIRERRVLPEVKPGYLKPLIPDAAPEKPEKWQDVMQDIERVIMPGVTHWHSPKFHAYFPTANSYPAIVADMLSGAIACIGFTWIASPACTELEVVMMDWLGKMLELPAEFLACSGGKGGGVIQGTASESTLVALLGAKAKKLKEVKELHPEWDEHTILGKLVGYCSDQAHSSVERAGLLGGVKLRSVQSENHRMRGAALEKAIEQDVAEGLIPFYAVVTLGTTNSCAFDYLDECGPVGNKHNLWIHVDAAYAGSAFICPEYRHLMKGIESADSFNFNPHKWMLVNFDCSAMWLKDPSWVVNAFNVDPLYLKHDMQGSAPDYRHWQIPLGRRFRALKLWFVLRLYGVENLQAHIRRHCNFAKQFGDLCVADSRFELAAEINMGLVCFRLKGSNERNEALLKRINGRGHIHLVPAKIKDVYFLRMAICSRFTQSEDMEYSWKEVSAAADEMEQEQ", "values": [{"measurement": "stoichiometry N", "setting": "[9]", "value": 2}]}]}
